B3: S. aureus DnaI (native protein from S. aureus cell extract) (other)
chain: MGGGQSIMKQFKSIINTSQDFEKRIEKIKKEVINDPDVKQFLEAHRAELTNAMIDEDLNVLQEYKDQQKHYDGHKFADCPNFVKGHVPELYVDNNRIKIRYLQCPCKIKYDEERFEAELITSHHMQRDTLNAKLKDIYMNHRDRLDVAMAADDICTAITNGEQVKGLYLYGPFGTGKSFILGAIANQLKSKKVRSTIIYLPEFIRTLKGGFKDGSFEKKLHRVREANILMLDDIGAEEVTPWVRDEVIGPLLHYRMVHELPTFFSSNFDYSELEHHLAMTRDGEEKTKAARIIERVKSLSTPYFLSGENFRNN
notes: also called DnaI homolog; DnaI related protein

The target of test [1] is Gal4 DNA binding domain fused to phage 77 ORF104 (pGBK77ORF104) (yeast; Staphylococcus aureus …, UniProt P04386 1-147). Nature of the test: yeast two-hybrid: growth of co-transformants on THAL minus SD medium; all six sectors show growth on TL minus SD medium.
For another test, the target named is T1, GST (UniProt P08515 1-218 = GST).
T1 construct: also called GST ligand (control)
Description: affinity chromatography: S. aureus extract (French pressure cell and sonication) on micro-columns with GST cross-linked at 0 to 2.0 mg/ml resin; eluate with 1% SDS; 12.5% SDS-PAGE, silver stain.

Test [2] has as its target B3. Nature of the test: affinity chromatography: S. aureus extract (French pressure cell and sonication) on micro-columns with ligand cross-linked at 0, 0.1, 0.5, 1.0 and 2.0 mg/ml resin; eluate with 1% Triton X-100; 12.5% SDS-PAGE, silver stain.
Test [3] deals with Gal4 DNA binding domain fused to full-length S. aureus DnaI (pGBK dnaI) (yeast; Staphylococcus aureus, UniProt P04386 1-147). Nature of the test: yeast two-hybrid: growth of co-transformants on SD plate without Trp, Leu, His and Ade (HIS3 and ADE2 reporters); all six sectors grow on the SD plate without Trp and Leu.
Test [4] has as its target B3. Description: affinity chromatography of S. aureus extract, elution with 1% Triton X-100 and 1% SDS, silver stain, MALDI-ToF identification.

T1 sequence (P08515 whole entry): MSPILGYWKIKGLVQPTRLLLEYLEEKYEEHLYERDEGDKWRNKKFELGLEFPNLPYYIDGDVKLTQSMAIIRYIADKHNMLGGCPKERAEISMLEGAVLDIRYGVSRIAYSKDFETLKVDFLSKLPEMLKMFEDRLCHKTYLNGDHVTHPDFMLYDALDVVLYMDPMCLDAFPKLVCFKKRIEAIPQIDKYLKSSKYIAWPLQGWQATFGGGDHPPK

B1: Gal4 activation domain fused to S. aureus DnaI amino acids 150 to 313 (other)
chain: AADDICTAITNGEQVKGLYLYGPFGTGKSFILGAIANQLKSKKVRSTIIYLPEFIRTLKGGFKDGSFEKKLHRVREANILMLDDIGAEEVTPWVRDEVIGPLLHYRMVHELPTFFSSNFDYSELEHHLAMTRDGEEKTKAARIIERVKSLSTPYFLSGENFRNN
Consider B1, for which the binding result in test [1] is given as “binds”.

B2: Gal4 activation domain (GAD) fused to full-length S. aureus DnaI (pGAD dnaI) (other)
chain: MGGGQSIMKQFKSIINTSQDFEKRIEKIKKEVINDPDVKQFLEAHRAELTNAMIDEDLNVLQEYKDQQKHYDGHKFADCPNFVKGHVPELYVDNNRIKIRYLQCPCKIKYDEERFEAELITSHHMQRDTLNAKLKDIYMNHRDRLDVAMAADDICTAITNGEQVKGLYLYGPFGTGKSFILGAIANQLKSKKVRSTIIYLPEFIRTLKGGFKDGSFEKKLHRVREANILMLDDIGAEEVTPWVRDEVIGPLLHYRMVHELPTFFSSNFDYSELEHHLAMTRDGEEKTKAARIIERVKSLSTPYFLSGENFRNN
As to B2, the binding result in test [1] was “binds”.

B3: the binding result with GST is given as “no binding (tested: 2.0 mg/ml resin)”.

B4: Gal4 activation domain fused to S. aureus DnaI amino acids 64 to 313 (other)
chain: YKDQQKHYDGHKFADCPNFVKGHVPELYVDNNRIKIRYLQCPCKIKYDEERFEAELITSHHMQRDTLNAKLKDIYMNHRDRLDVAMAADDICTAITNGEQVKGLYLYGPFGTGKSFILGAIANQLKSKKVRSTIIYLPEFIRTLKGGFKDGSFEKKLHRVREANILMLDDIGAEEVTPWVRDEVIGPLLHYRMVHELPTFFSSNFDYSELEHHLAMTRDGEEKTKAARIIERVKSLSTPYFLSGENFRNN
As to B4, the binding result in test [1] was “binds”.

B5: GST/ORF104 fusion protein (other)
chain: MVTKEFLKTKLECSDMYAQKLIDEAQGDENRLYDLFIQKLAERHTRPAIVEY
notes: also called GST-fusion of ORF 104; not shown: GST moiety encoded by expression vector pGEX 4T-1 (Pharmacia)
With B5, in test [2], the binding result is given as “binds”.

B6: Gal4 activation domain fused to phage 77 ORF104 (pGAD77ORF104) (other)
chain: MVTKEFLKTKLECSDMYAQKLIDEAQGDENRLYDLFIQKLAERHTRPAIVEY
Turning to B6, the binding result in test [3] is listed as “binds”.

B7: bacteriophage 77 ORF 104 protein (GST removed) (other)
chain: MVTKEFLKTKLECSDMYAQKLIDEAQGDENRLYDLFIQKLAERHTRPAIVEY
notes: also called phage 77 ORF 104 gene product
B7: the binding result in test [4] is “binds”.
